The results in this text go back to US12195506B2, “Immunotherapy with A*01 restricted peptides and combination of peptides against cancers and related methods” (Immatics Biotechnologies GmbH, priority 2018, dated 2025).

For the assay, the target named is HLA-A*01:01 (Homo sapiens, UniProt P04439, A114D/A174V/A182V/D101N/D185E/E176A/E190D/L180R/Q94H/R68K/S129P/T187R/V100A/V91M/W191G). As to the kind of experiment: MHC binding assay: UV-ligand exchange, ELISA of stabilized MHC complexes (peptide exchange yield). The following applies: binding to HLA-A*01:01, UV-ligand exchange. The procedure, abridged:
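Peptide–MHC complexes were formed by UV-induced exchange of a photocleavable ligand for the test peptide. Exchange yield was measured by streptavidin-capture ELISA of 100-fold diluted complexes, detected with HRP anti-β2m at A450. Refolded HLA-A*02:01/MLA-001 monomers at 15-500 ng/ml served as standards.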
As to “265 (LSDIDSRYI; listed as Homo sapiens) [compound 265]”, the Peptide exchange entry is reported as “++ (>20% = ++)”.

With “266 (LTDSFLLRF; listed as Homo sapiens) [compound 266]”, the Peptide exchange result is on record as “++++ (>75% = ++++)”.

Turning to “267 (IVADDTVY; listed as Homo sapiens) [compound 267]”, the Peptide exchange result is recorded as “+++ (>50 = +++)”.

As to “268 (AILHHLYFY; listed as Homo sapiens) [compound 268]”, the Peptide exchange result is listed as “+ (>10% =+)”.

In the case of “269 (LPSPAATIWDY; listed as Homo sapiens) [compound 269]”, the Peptide exchange result is “+++ (>50 = +++)”.

Turning to “270 (DLKIDLAAQY; listed as Homo sapiens) [compound 270]”, the Peptide exchange entry is “++ (>20% = ++)”.

As for “271 (VAEPPVVCSY; listed as Homo sapiens) [compound 271]”, the Peptide exchange entry is “++ (>20% = ++)”.

Consider “272 (IPQDECLRY; listed as Homo sapiens) [compound 272]”, for which the Peptide exchange entry is “+++ (>50 = +++)”.

“273 (CGPNEINHFY; listed as Homo sapiens) [compound 273]”: the Peptide exchange result was “++ (>20% = ++)”.

Regarding “274 (YADIHGDLL; listed as Homo sapiens) [compound 274]”, the Peptide exchange entry is given as “+++ (>50 = +++)”.

For the substance “275 (ESDEMENLLTY; listed as Homo sapiens) [compound 275]”, the Peptide exchange result is reported as “+++ (>50 = +++)”.

Take “276 (QITSFASGTSY; listed as Homo sapiens) [compound 276]”: the Peptide exchange entry is “+++ (>50 = +++)”.

On to “277 (LPAPGFLFY; listed as Homo sapiens) [compound 277]”, for which the Peptide exchange result is on record as “++ (>20% = ++)”.

Take “278 (AATVKSDIY; listed as Homo sapiens) [compound 278]”: the Peptide exchange entry was “++ (>20% = ++)”.

Turning to “279 (LMTVLLKY; listed as Homo sapiens) [compound 279]”, the Peptide exchange result is “+++ (>50 = +++)”.

Regarding “280 (TTEMVSNESVDY; listed as Homo sapiens) [compound 280]”, the Peptide exchange entry was “++++ (>75% = ++++)”.

As for “281 (YPDLSELLM; listed as Homo sapiens) [compound 281]”, the Peptide exchange entry is “++ (>20% = ++)”.

Take “282 (QAMPSWPTAAY; listed as Homo sapiens) [compound 282]”: the Peptide exchange entry was “++ (>20% = ++)”.

In the case of “283 (ETILVSSSY; listed as Homo sapiens) [compound 283]”, the Peptide exchange entry is recorded as “++ (>20% = ++)”.

For the substance “284 (TCSHTFVYY; listed as Homo sapiens) [compound 284]”, the Peptide exchange entry is reported as “++ (>20% = ++)”.

For “285 (VLPHHSEGACVY; listed as Homo sapiens) [compound 285]”, the Peptide exchange result is “+++ (>50 = +++)”.

For the substance “286 (ATDMEGNLNY; listed as Homo sapiens) [compound 286]”, the Peptide exchange result is on record as “+++ (>50 = +++)”.

On to “287 (ENSIEDLQY; listed as Homo sapiens) [compound 287]”, for which the Peptide exchange result is on record as “+++ (>50 = +++)”.

Regarding “288 (TEEKFVSY; listed as Homo sapiens) [compound 288]”, the Peptide exchange entry is recorded as “+ (>10% =+)”.

Turning to “289 (YTSHEDIGY; listed as Homo sapiens) [compound 289]”, the Peptide exchange result is “++++ (>75% = ++++)”.

Turning to “290 (GQFTGTAGACRY; listed as Homo sapiens) [compound 290]”, the Peptide exchange entry is on record as “++ (>20% = ++)”.

On to “291 (TSDVTGSLTY; listed as Homo sapiens) [compound 291]”, for which the Peptide exchange result was “++++ (>75% = ++++)”.

Take “292 (VLDFAPPGASAY; listed as Homo sapiens) [compound 292]”: the Peptide exchange entry is listed as “++++ (>75% = ++++)”.

“294 (MMEMEGMY; listed as Homo sapiens) [compound 294]”: the Peptide exchange entry is on record as “+++ (>50 = +++)”.

On to “295 (GQRLDEAMISY; listed as Homo sapiens) [compound 295]”, for which the Peptide exchange result was “+++ (>50 = +++)”.

Turning to “296 (HMLAAMAY; listed as Homo sapiens) [compound 296]”, the Peptide exchange result was “++ (>20% = ++)”.

Take “297 (RLDEAMISY; listed as Homo sapiens) [compound 297]”: the Peptide exchange result is listed as “+++ (>50 = +++)”.

For “298 (KFDVINHYF; listed as Homo sapiens) [compound 298]”, the Peptide exchange result was “++ (>20% = ++)”.

Regarding “299 (EVDSVALSL; listed as Homo sapiens) [compound 299]”, the Peptide exchange entry was “++ (>20% = ++)”.

For the substance “300 (VSINPNSGDIY; listed as Homo sapiens) [compound 300]”, the Peptide exchange result is given as “+++ (>50 = +++)”.

Consider “301 (ESQTCASDY; listed as Homo sapiens) [compound 301]”, for which the Peptide exchange result is reported as “+++ (>50 = +++)”.

On to “302 (FYLSTPENYHY; listed as Homo sapiens) [compound 302]”, for which the Peptide exchange result was “+++ (>50 = +++)”.

Take “303 (GFGGLSSQGVYY; listed as Homo sapiens) [compound 303]”: the Peptide exchange result was “+++ (>50 = +++)”.

Consider “304 (FSENLIYTYI; listed as Homo sapiens) [compound 304]”, for which the Peptide exchange result is on record as “++ (>20% = ++)”.

Regarding “305 (YADLLIYTY; listed as Homo sapiens) [compound 305]”, the Peptide exchange result is recorded as “++++ (>75% = ++++)”.

In the case of “306 (KSFETTVRY; listed as Homo sapiens) [compound 306]”, the Peptide exchange entry is “++ (>20% = ++)”.

For the substance “307 (DTDDRELRY; listed as Homo sapiens) [compound 307]”, the Peptide exchange entry was “+++ (>50 = +++)”.

Turning to “308 (ELAAGQVVY; listed as Homo sapiens) [compound 308]”, the Peptide exchange result is on record as “+ (>10% =+)”.

Turning to “309 (EVDRNLIQY; listed as Homo sapiens) [compound 309]”, the Peptide exchange entry was “+++ (>50 = +++)”.

In the case of “310 (KAFQELGVRY; listed as Homo sapiens) [compound 310]”, the Peptide exchange entry is listed as “++ (>20% = ++)”.

“311 (TVTDGTHTDFY; listed as Homo sapiens) [compound 311]”: the Peptide exchange result is recorded as “++ (>20% = ++)”.

Turning to “312 (VTDGINPLI; listed as Homo sapiens) [compound 312]”, the Peptide exchange result was “++ (>20% = ++)”.

On to “313 (VTDGTHTDFY; listed as Homo sapiens) [compound 313]”, for which the Peptide exchange entry is listed as “+++ (>50 = +++)”.

Take “314 (PPEANSLQGALY; listed as Homo sapiens) [compound 314]”: the Peptide exchange entry is reported as “++ (>20% = ++)”.

Consider “315 (VLKIELETY; listed as Homo sapiens) [compound 315]”, for which the Peptide exchange result was “+++ (>50 = +++)”.

On to “316 (YTCEECGQAF; listed as Homo sapiens) [compound 316]”, for which the Peptide exchange entry is reported as “++ (>20% = ++)”.

Turning to “317 (EDLLEVLDMY; listed as Homo sapiens) [compound 317]”, the Peptide exchange entry is reported as “++ (>20% = ++)”.

Consider “318 (YMTSMALNY; listed as Homo sapiens) [compound 318]”, for which the Peptide exchange result is recorded as “+++ (>50 = +++)”.

Consider “319 (FTDPHIITF; listed as Homo sapiens) [compound 319]”, for which the Peptide exchange result was “++++ (>75% = ++++)”.

For “320 (QALQDKLQTFY; listed as Homo sapiens) [compound 320]”, the Peptide exchange result is “++ (>20% = ++)”.

On to “321 (DGIADASNLSYY; listed as Homo sapiens) [compound 321]”, for which the Peptide exchange result is listed as “++ (>20% = ++)”.

On to “322 (FSELNPLALY; listed as Homo sapiens) [compound 322]”, for which the Peptide exchange entry is listed as “++++ (>75% = ++++)”.

“323 (KTLQKPVLPLY; listed as Homo sapiens) [compound 323]”: the Peptide exchange result is “++ (>20% = ++)”.

With “324 (RTGIFPYRF; listed as Homo sapiens) [compound 324]”, the Peptide exchange result is “++ (>20% = ++)”.

Consider “325 (LQKPVLPLY; listed as Homo sapiens) [compound 325]”, for which the Peptide exchange entry was “++ (>20% = ++)”.

For the substance “326 (STSRLTLFS; listed as Homo sapiens) [compound 326]”, the Peptide exchange result is given as “++ (>20% = ++)”.

With “327 (IMLSVDQHLY; listed as Homo sapiens) [compound 327]”, the Peptide exchange entry was “+++ (>50 = +++)”.

As for “328 (LLDEDNNIKL; listed as Homo sapiens) [compound 328]”, the Peptide exchange result is reported as “++ (>20% = ++)”.

On to “329 (NTDSMTLNNTAY; listed as Homo sapiens) [compound 329]”, for which the Peptide exchange result was “++++ (>75% = ++++)”.

As to “330 (EGELSEGEHWY; listed as Homo sapiens) [compound 330]”, the Peptide exchange result is on record as “+++ (>50 = +++)”.

On to “331 (YLYQAPGSLALY; listed as Homo sapiens) [compound 331]”, for which the Peptide exchange result is given as “++++ (>75% = ++++)”.

With “333 (LSDPQAELQFY; listed as Homo sapiens) [compound 333]”, the Peptide exchange result was “++++ (>75% = ++++)”.

Take “334 (PSSMPECLSY; listed as Homo sapiens) [compound 334]”: the Peptide exchange result is “++++ (>75% = ++++)”.

With “335 (PSSMPECLSYY; listed as Homo sapiens) [compound 335]”, the Peptide exchange entry is on record as “+++ (>50 = +++)”.

For the substance “336 (ATNIQLNIDTY; listed as Homo sapiens) [compound 336]”, the Peptide exchange result is reported as “+++ (>50 = +++)”.

For “337 (FTESNQYNIY; listed as Homo sapiens) [compound 337]”, the Peptide exchange result is recorded as “++++ (>75% = ++++)”.

For the substance “338 (YSPDSFNVSW; listed as Homo sapiens) [compound 338]”, the Peptide exchange entry was “++ (>20% = ++)”.
